# Laboratory results from article PMC6093203 (Journal of the American Chemical Society, 2018).
# B1: F-HECT-WWP2 (domain or fragment)
# chain: KPYDLRRRLYIIMRGEEGLDYGGIAREWFFLLSHEVLNPMYCLFEYAGKNNYCLQINPASSINPDHLTYFRFIGRFIAMALYHGKFIDTGFTLPFYKRMLNKRPTLKDLESIDPEFYNSIVWIKENNLEECGLELYFIQDMEILGKVTTHELKEGGESIRVTEENKEEYIMLLTDWRFTRGVEEQTKAFLDGFNEVAPLEWLRYFDEKELELMLCGMQEIDMSDWQKSTIYRHYTKNSKQIQWFWQVVKEMDNEKRIRLLQFVTGTCRLPVGGFAELIGSNGPQKFCIDKVGKETWLPRSHTCFNRLDLPPYKSYEQLREKLLYAIEETEGFGQE
# modifications: fluorescein on the N-terminal Cys
# Biological target: non-phosphorylated PTEN (n-PTEN)
# Assay: fluorescence polarisation
binder,measurement,value
B1,Kd,120 µM
